Measurements reported in patent publication US20020119148A1.

Key:
[1] = target: HRG binding sites on human mammary carcinoma cell lines MDA-MB-453, T47D and BT474; assay: self-competition, 100 nM unlabeled HRG against 125I-HRG on T47D cells
[2] = target: HRG binding sites on human mammary carcinoma cell lines MDA-MB-453, T47D and BT474; assay: self-competition, 100 nM unlabeled HRG against 125I-HRG on BT474 cells
[3] = target: HRG binding sites on human mammary carcinoma cell lines MDA-MB-453, T47D and BT474; assay: self-competition, 100 nM unlabeled HRG against 125I-HRG on MDA-MB-453 cells
[4] = target: HER-2 on human mammary carcinoma cell lines MDA-MB-453, T47D and BT474 (human) (UniProt P04626); assay: 125I-HRG binding to T47D cells, 100 nM Mab

percent of 125I-HRG binding blocked [1]	percent of 125I-HRG binding blocked [2]	percent of 125I-HRG binding blocked [3]	percent of 125I-HRG binding blocked [4]	Substance
98%	96%	99%		HRGβ1(177-244), EGF-like domain of heregulin β1 (from UniProt Q02297 177-244) (ligand)
			48%	anti-HER-2 control Mab 4D5 (antibody)
